PMC3431625
pKd: −log10 of the molar value.

Target: Recombinant α2β1 integrin (UniProt P17301)
Experiment: ELISA

Sequence of Recombinant α2β1 integrin (P17301 30-1181, chain 1 of 2): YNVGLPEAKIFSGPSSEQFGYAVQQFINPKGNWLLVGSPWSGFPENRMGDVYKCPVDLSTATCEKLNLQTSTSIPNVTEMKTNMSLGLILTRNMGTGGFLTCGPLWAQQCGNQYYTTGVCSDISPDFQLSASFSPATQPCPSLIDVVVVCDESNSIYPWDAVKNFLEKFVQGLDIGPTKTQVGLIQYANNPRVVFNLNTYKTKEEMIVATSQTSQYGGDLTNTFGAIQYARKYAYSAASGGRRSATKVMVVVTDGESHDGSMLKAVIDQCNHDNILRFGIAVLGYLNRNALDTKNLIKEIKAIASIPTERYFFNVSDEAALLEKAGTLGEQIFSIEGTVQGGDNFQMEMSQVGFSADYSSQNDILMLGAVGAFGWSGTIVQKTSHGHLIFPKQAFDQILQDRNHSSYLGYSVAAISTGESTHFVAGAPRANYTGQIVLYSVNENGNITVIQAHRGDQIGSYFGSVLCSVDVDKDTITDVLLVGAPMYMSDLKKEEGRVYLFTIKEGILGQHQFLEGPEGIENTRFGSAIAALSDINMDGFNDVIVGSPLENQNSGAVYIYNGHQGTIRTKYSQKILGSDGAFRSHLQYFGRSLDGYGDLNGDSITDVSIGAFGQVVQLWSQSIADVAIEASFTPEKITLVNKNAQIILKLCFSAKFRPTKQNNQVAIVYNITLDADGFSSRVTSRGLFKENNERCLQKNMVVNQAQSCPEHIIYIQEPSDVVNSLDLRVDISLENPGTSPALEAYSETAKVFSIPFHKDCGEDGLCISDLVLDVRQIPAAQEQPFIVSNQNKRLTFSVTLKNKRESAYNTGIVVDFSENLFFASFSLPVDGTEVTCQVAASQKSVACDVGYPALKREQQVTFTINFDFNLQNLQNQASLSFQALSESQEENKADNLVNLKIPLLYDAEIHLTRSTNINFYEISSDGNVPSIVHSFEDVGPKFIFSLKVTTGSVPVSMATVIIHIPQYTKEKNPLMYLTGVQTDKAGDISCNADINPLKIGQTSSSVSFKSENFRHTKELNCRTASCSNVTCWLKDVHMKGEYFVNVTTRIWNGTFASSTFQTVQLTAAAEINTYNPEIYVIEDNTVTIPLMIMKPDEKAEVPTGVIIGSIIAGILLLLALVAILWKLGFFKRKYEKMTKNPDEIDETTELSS
Sequence of Recombinant α2β1 integrin (P05556 21-798, chain 2 of 2, further chain): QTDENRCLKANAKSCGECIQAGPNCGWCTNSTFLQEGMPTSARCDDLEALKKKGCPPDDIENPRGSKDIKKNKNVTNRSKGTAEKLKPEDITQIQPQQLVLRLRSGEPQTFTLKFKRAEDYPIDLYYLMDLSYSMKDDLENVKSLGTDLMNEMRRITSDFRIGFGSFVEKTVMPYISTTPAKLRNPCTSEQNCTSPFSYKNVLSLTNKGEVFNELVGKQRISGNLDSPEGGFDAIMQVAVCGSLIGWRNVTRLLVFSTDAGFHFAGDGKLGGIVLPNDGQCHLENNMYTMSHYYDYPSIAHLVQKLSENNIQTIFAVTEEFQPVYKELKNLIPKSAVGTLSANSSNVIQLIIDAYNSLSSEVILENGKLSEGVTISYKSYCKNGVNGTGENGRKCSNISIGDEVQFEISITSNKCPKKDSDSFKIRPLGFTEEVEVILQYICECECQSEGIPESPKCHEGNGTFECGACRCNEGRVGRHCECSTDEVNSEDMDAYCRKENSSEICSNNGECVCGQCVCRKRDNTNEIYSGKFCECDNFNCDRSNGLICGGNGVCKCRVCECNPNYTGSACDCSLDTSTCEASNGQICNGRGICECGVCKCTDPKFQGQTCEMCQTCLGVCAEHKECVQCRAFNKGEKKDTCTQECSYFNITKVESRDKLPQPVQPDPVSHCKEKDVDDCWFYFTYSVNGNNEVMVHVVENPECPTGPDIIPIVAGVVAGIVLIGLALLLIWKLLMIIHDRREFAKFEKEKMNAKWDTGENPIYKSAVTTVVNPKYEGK

With “Biotinylated collagen type I (from UniProt P02453;P02465) (natural protein)” as the substance, how does the pKd read?
Its pKd is 8.82.
